{"source": "the nanobody polyreactivity screen of Harvey et al. (2022)"}
{"test": "yeast display, Sf9 membrane polyspecificity reagent, FACS + sequencing; frameworks hold sequencing errors", "method_in_brief": "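Synthetic nanobody libraries on Saccharomyces cerevisiae BJ5465 were galactose-induced for 36–48 hours, stained 1 hour at 4 °C with 10% biotinylated, detergent-solubilized Sf9 membrane reagent and enriched on streptavidin microbeads. FACS then separated cells into low and high (top ~1%) gates by anti-HA (expression) and streptavidin (reagent binding) fluorescence. Genes were colony-PCR amplified, MiSeq 2 × 250 sequenced and CDR-length filtered. A clone's polyreactivity label is that of its gate of origin.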"}
{"sequence": "QVQLVESGGGLVQAGGSLRLSCAASGRTLYRNAMGWYRQAPGKERELVAAIKMRGGSTYADSVKGRFTISRDNAKNTVYLQMNSLKPEDTAVYYCAAASRSPYYYWGQGTQVTVSS", "polyreactivity (PSR sort gate)": "high polyreactivity"}
{"sequence": "HVQLQESGGGLVQAGGSLRLSCAASGNISYSRNMGWYRQAPGKERELVAAIDRGAITYYADSVKGRFTISRDNAKNTVYLQIYSLKPEDTAVYYCAAEDHDRWDHLYWGQGTQVTVSS", "polyreactivity (PSR sort gate)": "high polyreactivity"}
{"sequence": "QVQLVESGGGLVQAGGSHRLSCAASGIIFGRYAMGSYIQAPGKERELVAAITSGGSTSYSDSVKGRFTISRDNAKNTVYLQMNSLKPEDTAVYYCAARGWYVRHPQNYGYWGQGTQVTVSS", "polyreactivity (PSR sort gate)": "high polyreactivity"}
{"sequence": "QVQLEESGRGLVQAGGSLRLSCAASGSTLNYNTMGWYRQAPGKVRELVATISSRGGRTDYADSVKGRFTFSRDNAKNNVYLQMNSLIPEYTAVYSCNALPRVVYTVGQSTFYYWGQGTQVTVSS", "polyreactivity (PSR sort gate)": "high polyreactivity"}
{"sequence": "QVQLVESGGGLVQAGGSLRLSCAASGSTFDVNAMGWYRQAPGKERELVAAISWNSGSTYYADSVKGRFTISRDNAMITVFLQMNSLKPEDTAVYYCAATYGTGRRSKYGYWGQGSQVTVSS", "polyreactivity (PSR sort gate)": "high polyreactivity"}
{"sequence": "QVQLVESGGGLVQAGGSLRLSCAASGFTLDWYVMGWYRQAPGKERELVAAISSSGGRTYYADSVKGRFTISRDNAKNTVYLQRNSLKPEDTAVYYCAARNKYGGYPYGYDYWGQGTQVTVSS", "polyreactivity (PSR sort gate)": "high polyreactivity"}
{"sequence": "QVQLVESGGGLVQAGGSLRLSCAASGSTFTAYAMGWYRQAPGKERQLVAAISKRSGVTYYADSVKGRFTISRDNAKNTVYLQINSLKPEDTAVYYCGQGTQVTVSS", "polyreactivity (PSR sort gate)": "low polyreactivity"}
{"sequence": "QVQRVESGGGLVQAGGSLRLSCAASGSNFDKNPMGWYRQAPGKEREVVAAISRSGGSTNYADSVKGRFTISRDNAKTTDFLLMYSVKPEDTAVYYFAAQSRYWTYDSWGQGTQVNVSS", "polyreactivity (PSR sort gate)": "high polyreactivity"}
{"sequence": "QVQLVESGGGLLQAGGSLRLSCAASGRICRYYAMGGYRQAPGKERELVAGIRTSGGRTYADSVKGRFTISRDYAKNTVYLQMNSLKPEDTAVYYCAAGRRTLSMYYWGQGTQVTVSS", "polyreactivity (PSR sort gate)": "high polyreactivity"}
{"sequence": "QDQLVESGGGFVQAGGSRRLSCAASGRTLAYNAMGWYRPAPGKEWEFVAAITYSGGSTYYADSVKGRFTISRDNAKNTVYLQMYSLKPEDTAVYYCNAKRKRGYGSKFDYWGQGTQVTVSS", "polyreactivity (PSR sort gate)": "high polyreactivity"}
{"sequence": "QVQLVESGGGLVQAGGSLRLSCAASGFIFRKYAMGWYRQAPGKERELVAAIRQRGGTTYYADSVKGRFTISRDNAKNTVYLQMNSLKPEDTAVYYCAAPYSSAYKYDYWGQGTQVTVSS", "polyreactivity (PSR sort gate)": "high polyreactivity"}
{"sequence": "QVQLVESGGGLVQAGGSLRLSCAASGRIYDYNTMGWYRKAPGKERELVAAITGGTGSTYYADSVKGRFTISRDNAKNTVYLQMNSLKPEDTAVYYCAAGFHKRVTPEILYDYWGQGTQVTVSS", "polyreactivity (PSR sort gate)": "low polyreactivity"}
{"sequence": "QVHLVESGGGLVQAGGSLRLSCAASGSIFEINAMGWYRQAPGKEWELVAAITGSGGSTHYADSVKGRFTISRDNAKNTVYLPMNSLNPEDTAVYYCAAVPRYQYGYWGQGTQVTVSS", "polyreactivity (PSR sort gate)": "low polyreactivity"}
{"sequence": "QVQLVESGRGLVQAGGSLRLSCAASGLTFGHYAMGGYRQAPGKERELVAAITSGGRTYYADSVKGRFTISRDNAKNTVYLQMNSLKPEDTAVYYCATRGPRYRYYYWGQGTQVTVSS", "polyreactivity (PSR sort gate)": "high polyreactivity"}
{"sequence": "QVQLVDSAGGLVQSGGSQRLSCAASGSIFHVYPMGCYRQAPGKERELVAAIRRRGGSTYYADSVKGRFTISRDTAKNTVYLQMNSLKPEDTAVYYCAARSVGFYRYDYWGQGTQVTVSS", "polyreactivity (PSR sort gate)": "low polyreactivity"}
{"sequence": "QVQLVESGGGLVQAGGSLRISCAASGYIFAVYAMGWYRQAPGKEREFVAVITWRGGSTYYADSVKGRFTISRDNAKNTVYLQMNSLKPEDTAVYYCAARWHFLTSSRFDYWGQGTQVTVSS", "polyreactivity (PSR sort gate)": "high polyreactivity"}
{"sequence": "QVQLVESGGGLVQAGGSLRLSCAASGSISGSYAMGWYRQAPGKERELVASITTSGGGTYYADSVKGRFTISRDNAKNTVYLQMNSLKPEDTAVFYCAVEYGYPYAGLDYWGQGTQVTVSS", "polyreactivity (PSR sort gate)": "low polyreactivity"}
